In experiment [1] the target is T1, human EpCAM extracellular domain (human).
T1 chain: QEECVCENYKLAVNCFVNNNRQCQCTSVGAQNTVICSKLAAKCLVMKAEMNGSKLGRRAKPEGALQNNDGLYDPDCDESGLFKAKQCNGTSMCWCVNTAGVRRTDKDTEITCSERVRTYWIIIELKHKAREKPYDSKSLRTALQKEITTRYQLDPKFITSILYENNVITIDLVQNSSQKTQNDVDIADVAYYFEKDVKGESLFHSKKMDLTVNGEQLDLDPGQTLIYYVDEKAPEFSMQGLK
Description: BLI, 30C, monovalent. (In general: Biolayer interferometry detects binding as a change in optical thickness at a sensor tip.)

For experiment [2], the target named is T2, human FcRn (human, UniProt P55899). Briefly: SPR, pH 6.0. On the technique in general: In SPR one partner is held on a chip, and binding of the other changes the refractive index at the surface.
T2 sequence (P55899 24-297, chain 1 of 2): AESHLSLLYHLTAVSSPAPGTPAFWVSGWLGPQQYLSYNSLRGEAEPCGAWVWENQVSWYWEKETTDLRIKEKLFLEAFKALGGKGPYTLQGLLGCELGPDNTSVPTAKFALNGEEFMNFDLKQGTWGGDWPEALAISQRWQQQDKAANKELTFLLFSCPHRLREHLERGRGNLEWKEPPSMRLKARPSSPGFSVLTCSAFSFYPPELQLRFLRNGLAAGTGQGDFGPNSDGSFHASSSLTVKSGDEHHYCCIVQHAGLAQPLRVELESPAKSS
T2 sequence (chain, as listed by the source, chain 2 of 2): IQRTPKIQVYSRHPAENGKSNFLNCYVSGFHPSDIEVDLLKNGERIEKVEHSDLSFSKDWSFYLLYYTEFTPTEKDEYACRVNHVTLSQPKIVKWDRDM
Experiment [3] concerns the target T3, FcγRIa (human, UniProt P12314).
T3 chain: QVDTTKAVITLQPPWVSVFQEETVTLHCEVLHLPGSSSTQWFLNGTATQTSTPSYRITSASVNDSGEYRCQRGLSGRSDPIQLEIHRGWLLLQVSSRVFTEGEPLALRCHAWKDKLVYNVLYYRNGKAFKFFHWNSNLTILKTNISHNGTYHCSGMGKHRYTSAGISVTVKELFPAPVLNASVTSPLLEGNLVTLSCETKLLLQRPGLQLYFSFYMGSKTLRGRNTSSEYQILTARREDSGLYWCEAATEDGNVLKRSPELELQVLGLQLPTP
Description: SPR.

Experiment [4] deals with FcγRIIIa V158 (human, UniProt P08637). Description: SPR.
Sequence of FcγRIIIa V158 (P08637 17-208 F176V): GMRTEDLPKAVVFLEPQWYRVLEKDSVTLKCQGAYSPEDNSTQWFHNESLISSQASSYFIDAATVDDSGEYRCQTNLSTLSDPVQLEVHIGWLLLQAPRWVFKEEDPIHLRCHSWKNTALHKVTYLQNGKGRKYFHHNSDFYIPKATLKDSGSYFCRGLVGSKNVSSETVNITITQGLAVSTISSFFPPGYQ
Experiment [5] has as its target T2, human FcRn. Description: SPR, pH 7.4.
The target in experiment [6] is FcγRIIIa F158 (human, UniProt P08637). Description: SPR.
Sequence of FcγRIIIa F158 (P08637 17-208): as the sequence (P08637 17-208 F176V) above, with V160F counted along it
Experiment [7] addresses T4, human EpCAM on DiFi cells (human).
T4 chain: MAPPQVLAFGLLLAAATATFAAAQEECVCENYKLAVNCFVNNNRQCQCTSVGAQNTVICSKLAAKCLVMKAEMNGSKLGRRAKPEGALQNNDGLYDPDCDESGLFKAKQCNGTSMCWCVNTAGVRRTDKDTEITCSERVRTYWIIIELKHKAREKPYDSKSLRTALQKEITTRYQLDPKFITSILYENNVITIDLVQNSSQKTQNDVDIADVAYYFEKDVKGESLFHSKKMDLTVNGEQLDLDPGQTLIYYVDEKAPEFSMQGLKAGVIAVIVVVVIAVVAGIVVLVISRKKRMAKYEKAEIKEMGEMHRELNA
Description: FACS, DiFi cells.

The values that follow come from US20260347498 (published 2026).

The Kd is the constant that tells how readily two partners part at equilibrium. Higher therefore signals a looser complex.

B1: BisG1-b12-FEAL/EpCAM-A37-FEAR (EpCAM arm) (antibody, V domains shown)
VH: QVQLVQSGAEVKKPGSSVRVSCKASGGTFSSYAISWVRQAPGQGLEWMGGIIPIFGTANYAQKFQGRVTITADESTSTAYMELSSLRSEDTAVYYCARDPFLHYWGQGTLVTVSS
VL: EIELTQSPGTLSLSPGERATLSCRASQTISNNYLAWYQQKRGQAPRLLIYAASSRATGIPDRFSGTGSGTDFTLTISRLEPEDFAVYYCAQGELYPRQFGGGTKLEIK
Consider B1, for which the Kd in experiment [1] worked out at 20 nM.

B2: IgG1-EpCAM-A37-FERL (antibody)
chain 1: not shown
chain 2: EIELTQSPGTLSLSPGERATLSCRASQTISNNYLAWYQQKRGQAPRLLIYAASSRATGIPDRFSGTGSGTDFTLTISRLEPEDFAVYYCAQGELYPRQFGGGTKLEIKRTVAAPSVFIFPPSDEQLKSGTASVVCLLNNFYPREAKVQWKVDNALQSGNSQESVTEQDSKDSTYSLSSTLTLSKADYEKHKVYACEVTHQGLSSPVTKSFNRGEC
For B2, binding in experiment [2] was put at a Kd of 230 nM. Besides, the binding result in experiment [3], in experiment [4], in experiment [5] and in experiment [6] was “no binding” each time.

B3: BisG2amm-EpCAM-323-A3-AALT/m4-1BB-3H3-AAKR (EpCAM arm) (antibody, V domains shown)
VH: QIQLVQSGPELKKPGETVKISCKASGYTFTNYGMNWVRQASGEGLKWMGWINTYTGEPTYGEDFKGRFAFSLETSASTAYLQINNLKNEDTATYFCARFGNYVDYWGQGTTLTVSS
VL: DIVMTQAAFSNPVTLGTSASISCRSSKNLLHSNGITYLYWYLQKPGQSPHLLIYQMSNLASGVPDRFSSSGSGTDFTLRISRVEAEDVGVYYCAQNLEIPRTFGGGTKLEIKR
Take B3: the Kd in experiment [1] is 3.2 nM.

B4: bsIgG1-b12-FERL/b12-FEAR (antibody)
chain 1: QVQLVQSGAEVKKPGASVKVSCQASGYRFSNFVIHWVRQAPGQRFEWMGWINPYNGNKEFSAKFQDRVTFTADTSANTAYMELRSLRSADTAVYYCARVGPYSWDDSPQDNYYMDVWGKGTTVIVSSASTKGPSVFPLAPSSKSTSGGTAALGCLVKDYFPEPVTVSWNSGALTSGVHTFPAVLQSSGLYSLSSVVTVPSSSLGTQTYICNVNHKPSNTKVDKRVEPKSCDKTHTCPPCPAPEFERGPSVFLFPPKPKDTLMISRTPEVTCVVVDVSHEDPEVKFNWYVDGVEVHNAKTKPREEQYNSTYRVVSVLTVLHQDWLNGKEYKCKVSNKALPAPIEKTISKAKGQPREPQVYTLPPSREEMTKNQVSLTCLVKGFYPSDIAVEWESNGQPENNYKTTPPVLDSDGSFLLYSKLTVDKSRWQQGNVFSCSVMHEALHNHYTQKSLSLSPG
chain 2: EIVLTQSPGTLSLSPGERATFSCRSSHSIRSRRVAWYQHKPGQAPRLVIHGVSNRASGISDRFSGSGSGTDFTLTITRVEPEDFALYYCQVYGASSYTFGQGTKLERKRTVAAPSVFIFPPSDEQLKSGTASVVCLLNNFYPREAKVQWKVDNALQSGNSQESVTEQDSKDSTYSLSSTLTLSKADYEKHKVYACEVTHQGLSSPVTKSFNRGEC
chain 3: QVQLVQSGAEVKKPGASVKVSCQASGYRFSNFVIHWVRQAPGQRFEWMGWINPYNGNKEFSAKFQDRVTFTADTSANTAYMELRSLRSADTAVYYCARVGPYSWDDSPQDNYYMDVWGKGTTVIVSSASTKGPSVFPLAPSSKSTSGGTAALGCLVKDYFPEPVTVSWNSGALTSGVHTFPAVLQSSGLYSLSSVVTVPSSSLGTQTYICNVNHKPSNTKVDKRVEPKSCDKTHTCPPCPAPEFEGGPSVFLFPPKPKDTLMISRTPEVTCVVVAVSHEDPEVKFNWYVDGVEVHNAKTKPREEQYNSTYRVVSVLTVLHQDWLNGKEYKCKVSNKALPAPIEKTISKAKGQPREPQVYTLPPSREEMTKNQVSLTCLVKGFYPSDIAVEWESNGQPENNYKTTPPVLDSDGSFFLYSRLTVDKSRWQQGNVFSCSVMHEALHNHYTQKSLSLSPG
chain 4: EIVLTQSPGTLSLSPGERATFSCRSSHSIRSRRVAWYQHKPGQAPRLVIHGVSNRASGISDRFSGSGSGTDFTLTITRVEPEDFALYYCQVYGASSYTFGQGTKLERKRTVAAPSVFIFPPSDEQLKSGTASVVCLLNNFYPREAKVQWKVDNALQSGNSQESVTEQDSKDSTYSLSSTLTLSKADYEKHKVYACEVTHQGLSSPVTKSFNRGEC
Turning to B4, in experiment [7], the binding result is listed as “no binding”.

B5: bsIgG1-b12-FERL/CD137-009-HC7LC2-FEAR (antibody)
chain 1: QVQLVQSGAEVKKPGASVKVSCQASGYRFSNFVIHWVRQAPGQRFEWMGWINPYNGNKEFSAKFQDRVTFTADTSANTAYMELRSLRSADTAVYYCARVGPYSWDDSPQDNYYMDVWGKGTTVIVSSASTKGPSVFPLAPSSKSTSGGTAALGCLVKDYFPEPVTVSWNSGALTSGVHTFPAVLQSSGLYSLSSVVTVPSSSLGTQTYICNVNHKPSNTKVDKRVEPKSCDKTHTCPPCPAPEFERGPSVFLFPPKPKDTLMISRTPEVTCVVVDVSHEDPEVKFNWYVDGVEVHNAKTKPREEQYNSTYRVVSVLTVLHQDWLNGKEYKCKVSNKALPAPIEKTISKAKGQPREPQVYTLPPSREEMTKNQVSLTCLVKGFYPSDIAVEWESNGQPENNYKTTPPVLDSDGSFLLYSKLTVDKSRWQQGNVFSCSVMHEALHNHYTQKSLSLSPG
chain 2: EIVLTQSPGTLSLSPGERATFSCRSSHSIRSRRVAWYQHKPGQAPRLVIHGVSNRASGISDRFSGSGSGTDFTLTITRVEPEDFALYYCQVYGASSYTFGQGTKLERKRTVAAPSVFIFPPSDEQLKSGTASVVCLLNNFYPREAKVQWKVDNALQSGNSQESVTEQDSKDSTYSLSSTLTLSKADYEKHKVYACEVTHQGLSSPVTKSFNRGEC
chain 3: EVQLVESGGGLVQPGRSLRLSCTASGFSLNDYWMSWVRQAPGKGLEWVGYIDVGGSLYYAASVKGRFTISRDDSKSIAYLQMNSLKTEDTAVYYCARGGLTYGFDLWGQGTLVTVSSASTKGPSVFPLAPSSKSTSGGTAALGCLVKDYFPEPVTVSWNSGALTSGVHTFPAVLQSSGLYSLSSVVTVPSSSLGTQTYICNVNHKPSNTKVDKRVEPKSCDKTHTCPPCPAPEFEGGPSVFLFPPKPKDTLMISRTPEVTCVVVAVSHEDPEVKFNWYVDGVEVHNAKTKPREEQYNSTYRVVSVLTVLHQDWLNGKEYKCKVSNKALPAPIEKTISKAKGQPREPQVYTLPPSREEMTKNQVSLTCLVKGFYPSDIAVEWESNGQPENNYKTTPPVLDSDGSFFLYSRLTVDKSRWQQGNVFSCSVMHEALHNHYTQKSLSLSPG
chain 4: DIVMTQSPSSLSASVGDRVTITCQASEDISSYLAWYQQKPGKAPKRLIYGASDLASGVPSRFSASGSGTDYTFTISSLQPEDIATYYCHYYATISGLGVAFGGGTKVEIKRTVAAPSVFIFPPSDEQLKSGTASVVCLLNNFYPREAKVQWKVDNALQSGNSQESVTEQDSKDSTYSLSSTLTLSKADYEKHKVYACEVTHQGLSSPVTKSFNRGEC
As for B5, the binding result in experiment [7] is on record as “no binding”.
